Source: PMC4686657

Molecular target: GST-E2f1 (UniProt Q01094)
Assay: EMSA
Conditions: increasing GST-E2f1, constant probe, EMSA: 20 mM HEPES, 10 mM KCl, 0.2 mM EDTA, 10% glycerol, 5 mM DTT (7 ul Binding Buffer D in 20 ul), 50 ng poly dI:dC, 0.15% NP-40, 1 ug BSA, 5 ug nuclear …

UniProt Q01094, sequence (Q01094 whole entry): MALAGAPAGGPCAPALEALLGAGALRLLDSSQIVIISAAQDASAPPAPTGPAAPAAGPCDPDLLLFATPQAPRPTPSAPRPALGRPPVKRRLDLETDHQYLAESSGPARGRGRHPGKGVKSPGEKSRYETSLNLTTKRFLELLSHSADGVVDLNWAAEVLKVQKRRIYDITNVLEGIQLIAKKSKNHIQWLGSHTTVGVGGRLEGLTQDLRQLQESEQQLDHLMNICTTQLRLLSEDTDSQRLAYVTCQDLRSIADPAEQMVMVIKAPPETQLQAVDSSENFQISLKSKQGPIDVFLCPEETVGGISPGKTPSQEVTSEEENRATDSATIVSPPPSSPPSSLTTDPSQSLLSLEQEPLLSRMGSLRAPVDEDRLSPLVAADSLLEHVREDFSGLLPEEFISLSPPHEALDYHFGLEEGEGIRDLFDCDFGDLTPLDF

How did the binding signal (scale: fold signal vs Pfkl probe) turn out when “CAGGCTTTTTCGGCGCGGAACGCAG (double strand) [Pfkl T-stretch probe]” was run?
The binding signal was 1.88.

With “CAGGCGACAGCGGCGCGGAACGCAG (double strand) [Pfkl probe]” as the sequence, how does the binding signal (reference (Pfkl T-stretch is 1.88-fold)) read?
The binding signal (reference (Pfkl T-stretch is 1.88-fold)) was 1.
